Series [1] concerns the molecule itself. Briefly: gel shift multimers on DNA probe (self-association on DNA).
Series [2] concerns the molecule itself. The experiment in a line: DNase I footprinting on the DHFR-E probe (self-association on DNA, inferred). The text has this: Materials and Methods: Probe DHFR-E-top was generated by digesting pUC/E with Bam HI, end-labeling by Klenow fill-in in the presence of [α-^32P]-dATP, and digesting with Bgl II. Probe DHFR-E-bottom was generated by digesting pUC/E with Bgl II, end-labeling by Klenow fill-in in the presence of [α-^32P]-dATP, and digesting with Bam HI. Footprinting probes were purified by gel electrophoresis and Geneclean (Bio 101), and resuspended in distilled water at a specific activity of 50,000 dpm/ul. Binding reactions (50 ul) that contained 50,000 dpm of labeled probe were assembled as for gel mobility shift assays. After incubation at 37° C. for 20 min and on ice for 15 min, one volume of a 5 mM CaCl_2, 10 mM MgCl2 solution was added for one minute at room temperature, followed by the addition of 0.02 units of DNase I for 1 min. Footprinting reactions were stopped with the addition of 90 ul prewarmed stop buffer (200 mM NaCl, 30 mM EDTA, 1% SDS), extracted with phenol, ethanol precipitated, and resuspended in sequencing dye buffer. Samples were resolved by electrophoresis at 65 W for 1.5 to 3.0 hours on denaturing 8% polyacrylamide gels. The gel was dried, exposed to Kodak XAR film at –80° C., and signals were detected by autoradiography.
Fusion proteins containing hand Z2 induced multiple hypersensitive sites on the top strand of DHFR-E, including the prominent site at position 3483.

B1: GST-Z2 (GST fused to the Z2 domain of RIP60, zinc fingers 6-8 plus 37 amino acids of the proline rich region) (other)
chain: GGDAVDRPFQCACCGKRFRHKPNLIAHRRVHTGERPHQCPECGKRFTNKPYLTSHRRIHTGEKPYPCKECGRRFRHKPNLLSHSKIHKRSEGSAQAAPGPGSPQLPAGPQESAAEPTPAVPLKPAQ
notes: Expressed in E. coli BL21 and purified on glutathione beads; also called GST-Z2(P12); GST-Z2-P12; not shown: glutathione-S-transferase (GST) purification tag, 26 kD, at the amino terminus; from vector pGEX-2T
For the protein B1, the binding result in series [1] is “binds”.

B2: GST-Z23 (GST fused to hands Z2 and Z3 of RIP60) (other)
chain: PRPGGDAVDRPFQCACCGKRFRHKPNLIAHRRVHTGERPHQCPECGKRFTNKPYLTSHRRIHTGEKPYPCKECGRRFRHKPNLLSHSKIHKRSEGSAQAAPGPGSPQLPAGPQESAAEPTPAVPLKPAQEPPPGAPPEHPQDPIEAPPSLYSCDDCGRSFRLERFLRAHQRHDTGERPFTCAECGKNFGKKTHLVAHSPVHSGERPFACEECGRRFSQGSHLAAHRPDHAPDRPFVCPDCGKAFRHKPYLARHRRIHTGEKPYVCPDCGKAFSQKSNLVSHRRIHTGERPYACPDCDRSFSQKSNLITHRKSHIRDGAFCCAICGQTFDDEERLLAHQKKHDV
notes: The start of the range is derived from the domain limits; nucleotide 682 would give residue 228; also called pCH61 product; not shown: glutathione-S-transferase (GST) purification tag from vector pGEX-2T
On to B2, for which the binding result in series [2] is given as “binds”.

The values are drawn from patent US6780986 (UNIVERSITY OF VERMONT AND STATE AGRICULTURAL COLLEGE, dated 2004).
